Laboratory results as given in patent US20230279128A1 (SYNTHEKINE, published 2023).
Values belong to the binder of their own block, whether it stands above or below them.

Assays:
[1] = biological target: T1, extracellular domain of mIFNgR2 (mouse); assay: flow cytometry, cross-reactivity
T1 construct: also called mIFNgR2 ECD; mouse IFNgR2 extracellular domain
T1 chain: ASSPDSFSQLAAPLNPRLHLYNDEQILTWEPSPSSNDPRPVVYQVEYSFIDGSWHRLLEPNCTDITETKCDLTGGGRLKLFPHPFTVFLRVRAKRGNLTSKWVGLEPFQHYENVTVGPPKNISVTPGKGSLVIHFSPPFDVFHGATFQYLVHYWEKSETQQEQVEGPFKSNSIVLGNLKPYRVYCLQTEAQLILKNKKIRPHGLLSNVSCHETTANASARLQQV

[2] = biological target: T2, extracellular domain of hIFNgR2 (human, UniProt P38484 28-247); assay: flow cytometry
T2 construct: also called hIFNgR2 ECD; hIFNgR2-ECD
T2 sequence: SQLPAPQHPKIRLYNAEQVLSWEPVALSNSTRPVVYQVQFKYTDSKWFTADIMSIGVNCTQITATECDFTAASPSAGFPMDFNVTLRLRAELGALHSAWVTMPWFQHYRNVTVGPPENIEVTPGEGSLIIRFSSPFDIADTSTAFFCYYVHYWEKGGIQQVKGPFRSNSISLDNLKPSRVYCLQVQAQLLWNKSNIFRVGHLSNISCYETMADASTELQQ

binding result [1]: binds
binding result [2]: binds
B1: DR933 (VHH)
VHH: QVQLVESGGGLVQPGDSLRLSCVASGGTISSLAMGWFRQAPGKEREFVAAISWSGRSTYYVDSVKGRFTISTDNAKNTVYLQMNSLKPEDTAVYYCVAGEDGHSEYDYWGQGTQVTVSS

binding result [1]: binds
binding result [2]: binds
B2: DR934 (VHH)
VHH: QVQLVESGGGLVQAGGSLRLSCAASGRSFANYAMGWFRQAPGKERETVAAISRGGGSTWYADSVKGRFTISKDNAKNTVYLQMNSLKPEDTAIYYCAARSYSGSYTYSFGEYDYWGQGTQVTVSS

binding result [1]: binds
binding result [2]: binds
B3: DR935 (VHH)
VHH: QVQLVESGGGLVQAGGSLRLSCAASGRAFSTYALGWFRQAPGKEREFIAAISRGGGSTDYADSVKGRFTISRDNAKSTVYLQMNSLKPEDTAVYYCAARSYSSSYYYSQYEYDYWGQGTQVTVSS

binding result [1]: binds
binding result [2]: binds
B4: DR930 (VHH)
VHH: EVQLVESGGGLVQAGGSLRLSCTVSGRTFSSYAVAWFRQAPGNVRELAAALSRGGGSAYYTDSVKGRFTISRDNAKNTVYLQMNSLKPEDTAVYYCAARNYDGTYYQENQYNYWGQGTQVTVSS

binding result [1]: binds
binding result [2]: binds
B5: DR931 (VHH)
VHH: QVQLVESGGGLVQAGGSLLLSCAASGRTFSTYAMGWFRQAPGKERMFVAAISVNGGSTYYADSVTGRFTISRDNAKNTMYLQMNNLKPGDTAVYYCAARRPYPGSDFLTWASYDYRGQGTLVTVSS

binding result [1]: binds
binding result [2]: binds
B6: DR932 (VHH)
VHH: QVQLVESGGGLVQAGGFLRLSCAASGRTFSYTTIGWFRQAPGKEREFVAVISAGGGSRDYADALKGRFTISRDNAKKMVYLQMNNLKPEDTAVYYCAVRRNTDTYTTTGDYDYWGQGTQVTVSS
